US20250161356A1 (UNIVERSITY OF MELBOURNE, published 2025)
Blank lines part the entries; values can stand above or below the binder they belong to.

B1: soluble BTN3A1 ectodomain (IgV-IgC), homodimer (ligand)
chain: not shown
notes: extracellular domain; Soluble analyte or immobilised ligand in SPR; streptavidin-PE tetramer in staining; also called BTN3A1 ectodomain homodimer; BTN3A1 tetramer; not shown: C-terminal biotin ligase (AviTag) and His tags
B11: BTN2A1 ectodomain homodimer (disulfide-linked, with C-terminal Cys247 and leucine zippers) (ligand, human, UniProt Q7KYR7 29-248, looked up)
chain: QFIVVGPTDPILATVGENTTLRCHLSPEKNAEDMEVRWFRSQFSPAVFVYKGGRERTEEQMEEYRGRTTFVSKDISRGSVALVIHNITAQENGTYRCYFQEGRSYDEAILHLVVAGLGSKPLISMRGHEDGGIRLECISRGWYPKPLTVWRDPYGGVAPALKEVSMPDADGLFMVTTAVIIRDKSVRNMSCSINNTLLGQKKESVIFIPESFMPSVSPCA
notes: extracellular domain; One copy carries the acidic, the other the basic zipper; also called immobilised BTN2A1 ectodomain homodimer; BTN2A1 homodimer; not shown: acidic or basic leucine zipper and C-terminal AviTag/His tags

Legend:
[1] = molecular target: T1, 9C2 Vγ5Vδ1+ γδTCR on transfected HEK293T cells; assay: flow cytometry, tetramer-PE versus CD3-APC on HEK293T cells co-transfected with CD3 and 9C2 TCR; SAv ctl 26
T1 construct: Control TCR, co-transfected with CD3; also called 9C2 TCR (Control)

[2] = molecular target: B1; assay: SPR, soluble BTN3A1 IgV domain over immobilised BTN3A1 homodimer
[3] = molecular target: B11; assay: SPR, soluble BTN3A1 IgV domain over immobilised BTN2A1 homodimer, equilibrium analysis, ± SEM
[4] = molecular target: B1; assay: SPR, soluble BTN2A1 ectodomain over immobilised BTN3A1 homodimer, equilibrium analysis, ± SEM
[5] = molecular target: B11; assay: SPR, soluble BTN2A1 ectodomain over immobilised BTN2A1 ectodomain homodimer
[6] = molecular target: B1; assay: SPR, soluble BTN2A1 ectodomain over immobilised BTN3A1 homodimer, equilibrium analysis
[7] = molecular target: T2, BTN2A1 on transfected cells (human, UniProt Q7KYR7 29-527); assay: FRET between anti-BTN2A1 (259) and anti-BTN3A (103.2) mAbs on NIH-3T3 cells co-expressing BTN2A1 WT and the BTN3A1 mutant (association in cis)
T2 construct: Expressed from pMIG in NIH-3T3 or HEK293T cells; also called BTN2A1+ cells; BTN2A1 WT
T2 sequence: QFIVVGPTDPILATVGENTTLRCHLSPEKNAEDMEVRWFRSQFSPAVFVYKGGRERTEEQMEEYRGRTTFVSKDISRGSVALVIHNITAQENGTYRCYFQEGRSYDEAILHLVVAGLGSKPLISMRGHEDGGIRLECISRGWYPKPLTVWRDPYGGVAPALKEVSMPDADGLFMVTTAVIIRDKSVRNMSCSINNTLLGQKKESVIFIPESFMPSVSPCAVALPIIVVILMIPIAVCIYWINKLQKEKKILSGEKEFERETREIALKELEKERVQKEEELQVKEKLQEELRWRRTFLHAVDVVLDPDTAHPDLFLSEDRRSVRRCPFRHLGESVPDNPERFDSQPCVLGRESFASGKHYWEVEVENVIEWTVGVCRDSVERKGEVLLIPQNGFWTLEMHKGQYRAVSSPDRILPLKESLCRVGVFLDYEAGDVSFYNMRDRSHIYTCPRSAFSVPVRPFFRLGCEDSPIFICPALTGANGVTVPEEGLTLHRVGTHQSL

[8] = molecular target: B1; assay: SPR, soluble BTN3A1 ectodomain over immobilised BTN2A1 homodimer, equilibrium analysis, ± SEM

Binder: B1
median fluorescence of PE [1]: 28

B2: monomeric BTN3A1 IgV domain (ligand)
chain: not shown
notes: domain: IgV; not shown: C-terminal biotin ligase (AviTag) and His tags
binding result [2]: no binding (tested: 1,590 µM)
Kd [3]: 1100 µM

B6: BTN3A1 Leu96-Ala on transfected NIH-3T3 cells (ligand)
chain: not shown
notes: whole, on cells; Position counts the mature protein
binding result [7]: no binding

B7: BTN3A1 Glu106-Ala on transfected NIH-3T3 cells (ligand)
chain: not shown
notes: as for B6
binding result [7]: no binding

B9: BTN3A1 Tyr105-Ala on transfected NIH-3T3 cells (ligand)
chain: not shown
notes: as for B6
binding result [7]: no binding

B10: BTN2A1 ectodomain tetramer (streptavidin-PE) (ligand, human, UniProt Q7KYR7 29-248, looked up)
chain: QFIVVGPTDPILATVGENTTLRCHLSPEKNAEDMEVRWFRSQFSPAVFVYKGGRERTEEQMEEYRGRTTFVSKDISRGSVALVIHNITAQENGTYRCYFQEGRSYDEAILHLVVAGLGSKPLISMRGHEDGGIRLECISRGWYPKPLTVWRDPYGGVAPALKEVSMPDADGLFMVTTAVIIRDKSVRNMSCSINNTLLGQKKESVIFIPESFMPSVSPCA
notes: extracellular domain; biotinylated at a C-terminal AviTag; also called BTN2A1 tetramer
median fluorescence of PE [1]: 25

Binder: B11
Kd [8]: 500 µM

The remaining lines, values ahead:

Kd [4]: 1800 µM
binding result [5]: no binding
Kd [6]: ~1800 µM
B3: soluble BTN2A1 ectodomain lacking Cys247 (monomeric) (ligand, human, UniProt Q7KYR7 29-246, looked up)
chain: QFIVVGPTDPILATVGENTTLRCHLSPEKNAEDMEVRWFRSQFSPAVFVYKGGRERTEEQMEEYRGRTTFVSKDISRGSVALVIHNITAQENGTYRCYFQEGRSYDEAILHLVVAGLGSKPLISMRGHEDGGIRLECISRGWYPKPLTVWRDPYGGVAPALKEVSMPDADGLFMVTTAVIIRDKSVRNMSCSINNTLLGQKKESVIFIPESFMPSVSP
notes: extracellular domain; also called soluble monomeric BTN2A1 ectodomain; full-length BTN2A1 ectodomain; not shown: C-terminal biotin ligase (AviTag) and His tags

binding result [7]: no binding
B4: BTN3A1 Arg44-Ala on transfected NIH-3T3 cells (ligand)
chain: not shown
notes: as for B6

binding result [7]: no binding
B5: BTN3A1 Tyr98-Ala on transfected NIH-3T3 cells (ligand)
chain: not shown
notes: as for B6

binding result [7]: no binding
B8: BTN3A1 Tyr98-Phe on transfected NIH-3T3 cells (ligand)
chain: not shown
notes: as for B6

median fluorescence of PE [1]: 52
B12: BTN2A1-BTN3A1-zipper ectodomain complex (wild type) (other)
chain 1: QFIVVGPTDPILATVGENTTLRCHLSPEKNAEDMEVRWFRSQFSPAVFVYKGGRERTEEQMEEYRGRTTFVSKDISRGSVALVIHNITAQENGTYRCYFQEGRSYDEAILHLVVAGLGSKPLISMRGHEDGGIRLECISRGWYPKPLTVWRDPYGGVAPALKEVSMPDADGLFMVTTAVIIRDKSVRNMSCSINNTLLGQKKESVIFIPESFMPSVSPCA
chain 2: not shown
notes: extracellular domain; Immobilised in SPR; streptavidin-PE tetramer in staining; also called BTN2A1-BTN3A1 complex; BTN2A1-BTN3A1 heteromer; not shown: acid zipper (AZ)-His6; basic zipper (BZ)-biotin ligase tag
